Data on three substances can be found in PMC3596305, “Escherichia coli NemA Is an Efficient Chromate Reductase That Can Be Biologically Immobilized to Provide a Cell Free System for Remediation of Hexavalent Chromium” (PLoS ONE, 2013).

This data set deals with [O]=[Cr](=[O])([OH])[OH]. In words: purified protein. Conditions: 1 mM NADH, 50 mM Tris-Cl pH 7.0, 22°C.

For the substance “ChrR_St (Salmonella enterica subsp. enterica serovar Typhi)”, the Km – broadly, the concentration of substrate that gives half-maximal velocity – amounted to 37 ± 2 µM; the kcat (as a rule, the number of substrate molecules converted per active site and unit of time at saturation) worked out at 0.031 s⁻¹; the kcat/Km (usually the turnover number divided by the Michaelis constant) came out at 830 M⁻¹ s⁻¹.
On the same counts, the results for “NfsA_St (Salmonella enterica subsp. enterica serovar Typhi)” are 180 µM, 0.02 s⁻¹ and 140 M⁻¹ s⁻¹.
On the same counts, the results for “NfsB_St (Salmonella enterica subsp. enterica serovar Typhi)” are 320 ± 120 µM, 0.54 s⁻¹ and 1700 M⁻¹ s⁻¹.
